{"source": "patent US7485618B2", "about": "“FGF-5 supported and binding peptides” (Genencor International, Inc., priority 2003, dated 2009)", "target": "T1, FGF-5 (Homo sapiens, UniProt P12034)", "T1 construct": "host or cells: FGF-5 added exogenously to NR6R-3T3 murine fibroblasts", "T1 sequence (P12034 21-268)": "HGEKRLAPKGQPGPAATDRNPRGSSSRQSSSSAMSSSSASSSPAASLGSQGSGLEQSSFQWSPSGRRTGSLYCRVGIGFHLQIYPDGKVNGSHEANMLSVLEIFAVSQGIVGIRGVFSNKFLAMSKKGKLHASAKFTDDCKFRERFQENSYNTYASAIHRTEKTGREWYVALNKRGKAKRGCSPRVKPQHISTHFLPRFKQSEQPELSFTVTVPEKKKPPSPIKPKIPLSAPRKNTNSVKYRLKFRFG", "assay": "BLA binding assay on FGF-5 coated plates, nitrocefin readout", "conditions": "purified peptide-BLA fusions at 0.1 nM, bound to FGF-5", "procedure": "This Example describes secondary screening methods used to analyze FGF-5 binding npeptides. Individual clones were picked and grown up in 5 ml LB+5 ppm CMP overnight at 37° C. The cell pastes were then treated with 125μ of B-PER reagent (Pierce) for 30 min with slow mixing. COSTAR plates (96-well) were coated with 0.1 μg (100 μl of 1 μg/ml) FGF-5, carrier-free (R&D Systems #237-F5/CF, Lot #GQ18304A) with gentle rocking at 4° C. overnight, followed by blocking with Superblock blocking buffer (Pierce) for several hours at room temperature. Then, 100 μl B-Per treated supernatant from individual clones from pGV02-L were added to the FGF-5 coated plates. After one hour, plates were washed six times with PBS, 0.05% TWEEN®-20 and 200 μl of nitrocefin assay buffer containing 0.1 mg/ml nitrocefin (Oxoid) was added to measure residual bound beta-lactamase activity, using Abs490/min. Control wells contained pCB04 (See, FIG. 1C) beta-lactamase as a control. […]\nCell pastes were harvested from the 200 ml cell cultures described in Example 6, by centrifugation at 3,000×g for 10 min. […] BLA activity of all liquid fractions was assayed using nitrocefin, and the concentration of fusion proteins in each fraction was calculated assuming the same specific activity as the WT enzyme. […]"}
{"molecule": "WT (wild-type): Wild-type BLA (E. cloaceae beta-lactamase) without peptide, control for binding of the fusions (protein) TPVSEKQLAEVVANTITPLMKAQSVPGMAVAVIYQGKPHYYTFGKADIAANKPVTPQTLFELGSISKTFTGVLGGDAIARGEISLDDAVTRYWPQLTGKQWQGIRMLDLATYTAGGLPLQVPDEVTDNASLLRFYQNWQPQWKPGTTRLYANASIGLFGALAVKPSGMPYEQAMTTRVLKPLKLDHTWINVPKAEEAHYAWGYRDGKAVRVSPGMLDAQAYGVKTNVQDMANWVMANMAPENVADASLKQGIALAQSRYWRIGSMYQGLGWEMLNWPVEANTVVEGSDSKVALAPLPVAEVNPPAPPVKASWVHKTGSTGGFGSYVAFIPEKQIGIVMLANTSYPNPARVEAAYHILEALQ", "values": [{"measurement": "Percent Bound at 0.1 nM", "result": 0.4, "unit": "%"}]}
